Measurements published in paper PMC8037807, “The Effect of Oxidized Dopamine on the Structure and Molecular Chaperone Function of the Small Heat-Shock Proteins, αB-Crystallin and Hsp27” (International Journal of Molecular Sciences, 2021).

Experiments:
[1] = molecular target: the molecule itself; assay: cross-linking; 15 μM αBc or Hsp27 incubated with 15 or 75 μM DA in 50 mM phosphate, 150 mM NaCl, pH 7.4, 24 h, 37 °C, aerobic; excess DAox removed (10 kDa filter); SDS-PAGE with DTT and boiling
[2] = molecular target: the molecule itself; assay: cross-linking; lysine-dimethylated and non-methylated sHsps reacted with a 0, 1, 5, 7.5, 10 or 20 molar excess of DA, 37 °C, 24 h, 50 mM phosphate buffer, pH 7.4; SDS-PAGE, monomer band quantified
[3] = molecular target: the molecule itself; assay: negative-stain transmission electron microscopy; 30 μM αBc or Hsp27 incubated with 0 or 150 μM DAox; particle diameters measured

B1: oxidized dopamine-modified αB-crystallin (natural protein, human, UniProt P02511 1-175, looked up)
chain: MDIAIHHPWIRRPFFPFHSPSRLFDQFFGEHLLESDLFPTSTSLSPFYLRPPSFLRAPSWFDTGLSEMRLEKDRFSVNLDVKHFSPEELKVKVLGDVIEVHGKHEERQDEHGFISREFHRKYRIPADVDPLTITSSLSSDGVLTVNGPRKQVSGPERTIPITREEKPAVTAAPKK
modifications: modified and covalently cross-linked by oxidized dopamine (DAox); lysine residues involved in the cross-links; sites not mapped
notes: αB-crystallin (HspB5), human small heat-shock protein; monomeric subunit mass 20.2 kDa; same protein as m1; Made at several molar ratios of αBc to DA (1:1, 1:5, 1:10, 1:20, 1:30); All ratios are kept as one molecule; the ratio is named in each row; also called αBc:DAox; DAox-modified αBc
B1: binds [1].

B2: methylated αBc reacted with DAox (natural protein, human, UniProt P02511 1-175, looked up)
chain: MDIAIHHPWIRRPFFPFHSPSRLFDQFFGEHLLESDLFPTSTSLSPFYLRPPSFLRAPSWFDTGLSEMRLEKDRFSVNLDVKHFSPEELKVKVLGDVIEVHGKHEERQDEHGFISREFHRKYRIPADVDPLTITSSLSSDGVLTVNGPRKQVSGPERTIPITREEKPAVTAAPKK
modifications: dimethylation of all lysine residues (and the amino terminus), confirmed by mass spectrometry; then modified by oxidized dopamine (DAox)
notes: αB-crystallin (HspB5), human small heat-shock protein; same protein as m1; Reacted with a 0, 1, 5, 7.5, 10 or 20 molar excess of DA; also called lysine-dimethylated αBc
B2: binds [2].

B3: αB-crystallin (natural protein, human, UniProt P02511 1-175, looked up)
chain: MDIAIHHPWIRRPFFPFHSPSRLFDQFFGEHLLESDLFPTSTSLSPFYLRPPSFLRAPSWFDTGLSEMRLEKDRFSVNLDVKHFSPEELKVKVLGDVIEVHGKHEERQDEHGFISREFHRKYRIPADVDPLTITSSLSSDGVLTVNGPRKQVSGPERTIPITREEKPAVTAAPKK
notes: αB-crystallin (HspB5), human small heat-shock protein; monomeric subunit mass 20.2 kDa; Lys174 and Lys175 at the extreme C-terminus; Heterogeneous large oligomer in solution; also called HspB5; native αBc; source: expressed and purified as previously described [9,40,41]
B3: binds [3].
